Experimental data from US20180105569A1 (INDIANA UNIVERSITY RESEARCH AND TECHNOLOGY, published 2018).
Where two headings read alike, the source gives them in different places. Numbered stars: 1 amine (or outer) side, 2 acyl side, 3 side chain; on linkers, the order of the positions; unused ones are H or OH. Square brackets hold non-standard residues; d marks the D form. Side chains are listed from the residue outwards. * marks the point of attachment. γGlu = O=C(O)[C@H](CCC(=O)[*:2])N[*:1]; Desaminotyrosyl = O=C(CCc1ccc(O)cc1)*; Palmitoyl = CCCCCCCCCCCCCCCC(=O)*

T1: GIP receptor (UniProt P48546 22-466, limits assumed)
T1 sequence (looked up): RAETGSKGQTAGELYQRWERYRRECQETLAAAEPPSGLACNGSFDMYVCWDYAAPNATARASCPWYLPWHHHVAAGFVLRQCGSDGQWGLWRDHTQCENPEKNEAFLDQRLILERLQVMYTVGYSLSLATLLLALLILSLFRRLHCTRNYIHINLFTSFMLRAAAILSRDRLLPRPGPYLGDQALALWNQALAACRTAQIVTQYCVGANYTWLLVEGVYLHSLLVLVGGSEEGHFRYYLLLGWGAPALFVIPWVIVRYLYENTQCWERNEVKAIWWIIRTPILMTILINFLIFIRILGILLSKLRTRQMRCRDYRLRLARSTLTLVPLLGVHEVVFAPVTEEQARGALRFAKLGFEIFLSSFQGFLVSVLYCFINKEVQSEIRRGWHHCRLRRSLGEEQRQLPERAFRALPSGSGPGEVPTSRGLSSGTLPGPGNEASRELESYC


Assays:
Test in all cases: cell-based or functional assay
[1] = molecular target: T1, GIP receptor
[2] = molecular target: T2, GLP-1 receptor (UniProt P43220 24-463, limits assumed)
[3] = molecular target: T3, glucagon receptor (UniProt P47871 26-477, limits assumed)
T3 sequence (P47871 26-477 limits assumed): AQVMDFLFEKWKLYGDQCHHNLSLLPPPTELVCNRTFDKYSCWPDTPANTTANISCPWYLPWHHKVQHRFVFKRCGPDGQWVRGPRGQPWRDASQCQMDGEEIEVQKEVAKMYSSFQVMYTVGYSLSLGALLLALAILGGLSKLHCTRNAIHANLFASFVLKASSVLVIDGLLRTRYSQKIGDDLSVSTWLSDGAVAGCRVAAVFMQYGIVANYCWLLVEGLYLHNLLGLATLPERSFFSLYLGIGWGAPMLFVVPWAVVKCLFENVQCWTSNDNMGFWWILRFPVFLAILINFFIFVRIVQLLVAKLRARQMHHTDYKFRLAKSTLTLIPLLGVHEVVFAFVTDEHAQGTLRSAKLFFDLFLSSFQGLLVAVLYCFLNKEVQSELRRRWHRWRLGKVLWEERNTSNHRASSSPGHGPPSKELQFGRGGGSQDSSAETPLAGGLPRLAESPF

[4] = molecular target: T1, GIP receptor; remark: listed apart in the source
[5] = molecular target: T2, GLP-1 receptor; remark: listed apart in the source
[6] = molecular target: T3, glucagon receptor; remark: listed apart in the source

Binder | EC50 at GIP Receptor (cAMP luciferase reporter, HEK293) [1] | EC50 at GLP-1 Receptor (cAMP luciferase reporter, HEK293) [2] | EC50 at Glucagon Receptor (cAMP luciferase reporter, HEK293) [3] | EC50 at GIP Receptor (cAMP luciferase reporter, HEK293) [4] | EC50 at GLP-1 Receptor (cAMP luciferase reporter, HEK293) [5] | EC50 at Glucagon Receptor (cAMP luciferase reporter, HEK293) [6]
Ac-[dY]AQGTFTSDK([γGlu-Palmitoyl])SKYLDERAAQDFVQWLLDAGPSSGAPPPS-NH2 [peptide of SEQ ID NO: 143] | 0.003 nM | 0.003 nM | 0.004 nM | – | – | –
[Desaminotyrosyl]AQGTFTSDYSKYLDERAAQDFVQWLLEGGPSSGAPPPSK([γGlu-γGlu-Palmitoyl])G-NH2 [peptide of SEQ ID NO: 160] | – | – | – | 0.086 nM | 0.022 nM | 0.049 nM
Ac-[dY]AQGTFTSDK([γGlu-Palmitoyl])SKYLDERAAQDFVQWLLEAGPSSGAPPPS-NH2 (SMILES CCCCCCCCCCCCCCCC(=O)N[C@@H](CCC(=O)NCCCC[C@H](NC(=O)[C@H](CC(=O)O)NC(=O)[C@H](CO)NC(=O)[C@@H](NC(=O)[C@H](Cc1ccccc1)NC(=O)[C@@H](NC(=O)CNC(=O)[C@H](CCC(N)=O)NC(=O)[C@H](C)NC(=O)[C@@H](Cc1ccc(O)cc1)NC(C)=O)[C@@H](C)O)[C@@H](C)O)C(=O)N[C@@H](CO)C(=O)N[C@@H](CCCCN)C(=O)N[C@@H](Cc1ccc(O)cc1)C(=O)N[C@@H](CC(C)C)C(=O)N[C@@H](CC(=O)O)C(=O)N[C@@H](CCC(=O)O)C(=O)N[C@@H](CCCNC(=N)N)C(=O)N[C@@H](C)C(=O)N[C@@H](C)C(=O)N[C@@H](CCC(N)=O)C(=O)N[C@@H](CC(=O)O)C(=O)N[C@@H](Cc1ccccc1)C(=O)N[C@H](C(=O)N[C@@H](CCC(N)=O)C(=O)N[C@@H](Cc1c[nH]c2ccccc12)C(=O)N[C@@H](CC(C)C)C(=O)N[C@@H](CC(C)C)C(=O)N[C@@H](CCC(=O)O)C(=O)N[C@@H](C)C(=O)NCC(=O)N1CCC[C@H]1C(=O)N[C@@H](CO)C(=O)N[C@@H](CO)C(=O)NCC(=O)N[C@@H](C)C(=O)N1CCC[C@H]1C(=O)N1CCC[C@H]1C(=O)N1CCC[C@H]1C(=O)N[C@@H](CO)C(N)=O)C(C)C)C(=O)O) [peptide of SEQ ID NO: 146] | 0.006 nM | 0.007 nM | 0.009 nM | – | – | –
Ac-[dY]AQGTFTSDYSKYLDERAAQDFVQWLLEAGPSSGAPPPSK([γGlu-γGlu-Palmitoyl])G-NH2 [peptide of SEQ ID NO: 159] | – | – | – | 0.08 nM | 0.009 nM | 0.04 nM
[Desaminotyrosyl]AQGTFTSDYSKYLDERAAQDFVQWLLEGGPSSGAPPPSK(Palmitoyl)G-NH2 [peptide of SEQ ID NO: 157] | – | – | – | 0.059 nM | 0.013 nM | 0.047 nM
Ac-[dH]AQGTFTSDK([γGlu-Palmitoyl])SKYLDERAAQDFVQWLLEAGPSSGAPPPS-NH2 [peptide of SEQ ID NO: 151] | – | – | – | 0.014 nM | 0.002 nM | 0.003 nM
Ac-[dH]AQGTFTSDYSKYLDERAAQDFVQWLLEGGPSSGAPPPSK([γGlu-γGlu-Palmitoyl])G-NH2 [peptide of SEQ ID NO: 152] | 0.017 nM | 0.003 nM | 0.003 nM | – | – | –
Ac-[dF]AQGTFTSDK([γGlu-Palmitoyl])SKYLDERAAQDFVQWLLEGGPSSGAPPPS-NH2 [peptide of SEQ ID NO: 150] | – | – | – | 0.011 nM | 0.002 nM | 0.014 nM
Ac-[dY]AQGTFTSDK([γGlu-Palmitoyl])SKYLDERAAQDFVQWLLDLGPSSGAPPPS-NH2 [peptide of SEQ ID NO: 153] | 0.018 nM | 0.017 nM | 0.021 nM | – | – | –
Ac-[dY]AQGTFTSDYSKYLDERAAQDFVQWLLEGGPSSGAPPPSK([γGlu-γGlu-Palmitoyl])G-NH2 [peptide of SEQ ID NO: 149] | – | – | – | 0.008 nM | 0.002 nM | 0.012 nM
Ac-[dH]AEGTFTSDK([γGlu-Palmitoyl])SKYLDERAAQDFVQWLLEAGPSSGAPPPS-NH2 [peptide of SEQ ID NO: 154] | – | – | – | 0.024 nM | 0.004 nM | 0.847 nM
